In assay [1] the target is Polyclonal antibody ab6982 (Abcam). The experiment in a line: cyclic peptide microarray, fiber peptides.
Assay [2] shares this target. Nature of the assay: cyclic peptide microarray, hexon peptides.

Regarding AHLIIRF (peptide), the rank of binding signal in assay [1] was determined as 6 rank.

On to ALEINLE (peptide), for which the rank of binding signal in assay [2] turned out to be 33 rank. In turn, AQNQLNI (peptide) showed a rank of binding signal in assay [1] of 172 rank. The same measure, in the same setting: the value for ARPSEDT (peptide) was 41 rank. On the same count and under the same terms, to ATSSYTF (peptide) belongs 80 rank; to AYSMSFS (peptide), 167 rank.

The substance DDDNEDE (peptide) came in with a rank of binding signal in assay [2] of 96 rank.

Regarding DDNEDEV (peptide), the rank of binding signal in assay [2] amounted to 78 rank.

The substance DEVDEQA (peptide) displayed a rank of binding signal in assay [2] of 10 rank.

DIETPDT (peptide): the rank of binding signal in assay [2] came out at 62 rank. In assay [1], DPEYWNE (peptide) came in with a rank of binding signal of 53 rank. For the substance DRMYSFF (peptide), the rank of binding signal in assay [2] was found to be 86 rank. Substance DTFNPVY (peptide) returned a rank of binding signal in assay [1] of 130 rank. On to EDDDNED (peptide), for which the rank of binding signal in assay [2] was 63 rank. In assay [2], EDEVDEQ (peptide) came in with a rank of binding signal of 126 rank. The same measure, in the same setting: to EEDDDNE (peptide) belongs 108 rank. Still for that read-out and setting: the value for EINLEEE (peptide) was 6 rank. Same read-out and setting: to ETPDTHI (peptide) belongs 51 rank. In assay [2], EVDEQAE (peptide) came in with a rank of binding signal of 17 rank. Turning to EYWNFRN (peptide), in assay [1], the rank of binding signal amounted to 113 rank.

As to FLDPEYW (peptide), the rank of binding signal in assay [1] was found to be 50 rank. Take FSWDWSG (peptide): the rank of binding signal in assay [1] came to 186 rank. Still for that read-out and setting: the value for FVSPNG (peptide) was 13 rank. Consider GDRTRYF (peptide), for which, in assay [2], the rank of binding signal was 80 rank. For the substance GQGPLFI (peptide), the rank of binding signal in assay [1] is 58 rank. Still for that read-out and setting: the value for HLIIRFD (peptide) was 60 rank. The same measure, in the same setting: the value for HNLDINY (peptide) was 9 rank. Take IETPDTH (peptide): in assay [2], the rank of binding signal came out at 45 rank. With IFATSSY (peptide), the rank of binding signal in assay [1] was determined as 104 rank. As for IGYQGFY (peptide), the rank of binding signal in assay [2] was determined as 136 rank. The same measure, in the same setting: to INLEEED (peptide) belongs 32 rank. The same measure, in the same setting: to KDRMYSF (peptide) belongs 143 rank; to LEINLEE (peptide), 4 rank. Substance LGQGPLF (peptide) gave a rank of binding signal in assay [1] of 27 rank. On the same count and under the same terms, to LGTGLSF (peptide) belongs 44 rank; to LNLRLGQ (peptide), 173 rank; to LNNSFLD (peptide), 180 rank.

In turn, MSFSWDW (peptide) showed a rank of binding signal in assay [1] of 22 rank. As for NIGYQGF (peptide), in assay [2], the rank of binding signal was found to be 187 rank. In turn, NKGLYLF (peptide) gave a rank of binding signal in assay [1] of 20 rank. The substance NLEEEDD (peptide) came in with a rank of binding signal in assay [2] of 65 rank. NQLNLRL (peptide) showed a rank of binding signal in assay [1] of 72 rank. The same measure, in the same setting: to NYINEIF (peptide) belongs 16 rank; to PELTPPF (peptide), 47 rank. On the same count and under the same terms, to PEYWNFR (peptide) belongs 31 rank; to QGPLFIN (peptide), 93 rank; to QLNLRLG (peptide), 136 rank. The same measure, in the same setting: to QNQLNLR (peptide) belongs 82 rank; to QSAHLII (peptide), 126 rank; to RPSEDTF (peptide), 24 rank.

The substance SAHLIIR (peptide) returned a rank of binding signal in assay [1] of 65 rank. Same read-out and setting: the value for SAYSMSF (peptide) was 108 rank; that for SFSWDWS (peptide) was 100 rank. The same measure, in the same setting: to SMSFSWD (peptide) belongs 144 rank.

In turn, SSYTFSY (peptide) had a rank of binding signal in assay [1] of 42 rank. On to SWDWSGH (peptide), for which the rank of binding signal in assay [1] was 193 rank.

For the substance SYTFSYI (peptide), in assay [1], the rank of binding signal was 64 rank. Substance TRYFSMW (peptide) gave a rank of binding signal in assay [2] of 73 rank. On the same count and under the same terms, to VDEQAEQ (peptide) belongs 20 rank.

Regarding YINEIFA (peptide), the rank of binding signal in assay [1] was 168 rank. The substance YSFFRNF (peptide) registered a rank of binding signal in assay [2] of 104 rank. YSMSFSW (peptide) displayed a rank of binding signal in assay [1] of 8 rank. The same measure, in the same setting: to YTESYIA (peptide) belongs 181 rank.

Values taken from patent publication US20250213707A1, “COMPOUND FOR INCREASING EFFICACY OF ONCOLYTIC VIRUSES” (ABLEVIA BIOTECH GMBH, priority 2022, published 2025).
